# T1: mTEM8-Fc (UniProt Q9CZ52 31-319, limits assumed)
# T1 construct: not shown: Fc part
# T1 sequence (looked up): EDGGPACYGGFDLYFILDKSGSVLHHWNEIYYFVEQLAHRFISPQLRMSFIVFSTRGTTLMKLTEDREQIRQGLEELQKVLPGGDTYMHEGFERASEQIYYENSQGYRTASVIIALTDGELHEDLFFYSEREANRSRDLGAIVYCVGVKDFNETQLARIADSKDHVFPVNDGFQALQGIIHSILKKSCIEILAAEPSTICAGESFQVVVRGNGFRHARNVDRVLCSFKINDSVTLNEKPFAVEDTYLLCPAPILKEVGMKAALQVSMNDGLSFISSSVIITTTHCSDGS
# T2: hTEM8-AP (Homo sapiens, UniProt Q9H6X2 33-321)
# T2 sequence: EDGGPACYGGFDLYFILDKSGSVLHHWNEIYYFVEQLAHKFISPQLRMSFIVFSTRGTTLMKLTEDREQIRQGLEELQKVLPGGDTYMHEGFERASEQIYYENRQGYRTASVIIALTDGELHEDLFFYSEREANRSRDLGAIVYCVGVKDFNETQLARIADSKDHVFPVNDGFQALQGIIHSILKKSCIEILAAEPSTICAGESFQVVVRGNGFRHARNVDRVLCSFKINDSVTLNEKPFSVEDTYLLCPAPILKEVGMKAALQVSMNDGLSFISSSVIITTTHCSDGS
# Columns and labels:
# mTEM8-Fc = target: T1, mTEM8-Fc; test: Biacore affinity measurement of Fab
# hTEM8-AP = target: T2, hTEM8-AP; test: Biacore affinity measurement of Fab
Binder,Kd (mTEM8-Fc) [nM],koff (mTEM8-Fc) [s⁻¹],kon (mTEM8-Fc) [M⁻¹ s⁻¹],Kd (hTEM8-AP) [nM],koff (hTEM8-AP) [s⁻¹],kon (hTEM8-AP) [M⁻¹ s⁻¹]
"M830 anti-TEM8 fragment antigen-binding (Fab) (Fab, V domains shown, also called M830 Fab) VH: EVQLVESGGGVVQPGRSVRLSCAASGFTFSTYTMHWVRQAPGKGLEWVAIISNDGSNKYYADPVRGRFTISRDNSKNTLYLQMNSLRAEDTAVYYCVRGSSWYRGNWFDPWGQGTLVTVSS VL: DIQMTQSPSSLSASVGDRVTIACRASQTISRYLNWYQQKPGKAPKLLIYAASSLQSGVSSRFSGSGSGTEFTLTISSLQPEDFATYFCQQTYSPPITFGQGTRLEIKR",3.74,0.0029,775000,1.57,0.000953,607000
"M825 anti-TEM8 fragment antigen-binding (Fab) (Fab, V domains shown, also called M825 Fab) VH: QVQLVQSGAEVKKPGTSVKVSCKVPGYTFSSYAISWVRQAPGQGLEWMGGIIPIFGTTNYAQKFQGRVTITGEESTSTVYMELSSLRSEDTAVYYCARDTDYMFDYWGQGTLVTVSS VL: SSELTQDPVVSVALGETVSITCQGDNLRDFYASWYQQKPGQAPLLVMYGKNRRPSGIPDRFSGSTSGNTLSLTITGAQAEDEADYYCSSRDNSKHVVFGGGTKVTVL",0.0526,8.94e-05,1.7e+06,0.0591,0.00018,3.05e+06

# Source: US20170095575A1 (BIOMED VALLEY DISCOVERIES, published 2017)
